# Reference: US20110262438A1 (Ablynx, published 2011)
# B1: 08A10 with Tag-1 (VHH)
# VHH: EVQLVESGGGLVQAGGSLRLSCAASGSIFSIAAMGWYRQATGKQRELVATITDGGTTTYADSVKGRVTISRDRSANTVYLAMNNLKPDDTAVYYCYAYLRYTSRVPGDNYWGQGTQVTVSS
# B2: 07C3 with Tag-1 (VHH)
# VHH: EVQLVESGGGLVQAGESLTLSCAASGRTLSAYIMGWFRQAPGKEREFVAGIWSGGYTHLADSAKGRFSISRDNAKNTVYLQMNGLKPEDTAVYYCAAGLRGRQYSNWGQGTQVTVSS
# B3: 07B11 with Tag-1 (VHH)
# VHH: EVQLVESGGNLVQAGGSLGLSCAASVSISSIHIMGWYRQAPGKQRDLVATITSGGSTAYADSVKGRFTVSKDNAKNTVYLQMDSLKPEDTSVYYCAAEVRNGVFGKWNHYWGQGTQVTVSS
# B4: 08A5 with Tag-1 (VHH)
# VHH: EVQLVESGGGLVQAGDSLRLSCAASGLTFSNYDMGWFRQAPGKEREFVGASWWSGGAPYYSDSVKGRFTISRDNAKNTVYLQANSLRPEDTAVYYCAAKRLRSFASGGSYDYWGQGTQVTVSS
# B5: 07C3 with Tag-2 (VHH)
# VHH: EVQLVESGGGLVQAGESLTLSCAASGRTLSAYIMGWFRQAPGKEREFVAGIWSGGYTHLADSAKGRFSISRDNAKNTVYLQMNGLKPEDTAVYYCAAGLRGRQYSNWGQGTQVTVSS
# notes: Purified monovalent Nanobody from E. coli (pAX100); also called 7CXCR07C3
# B6: 08A10 with Tag-2 (VHH)
# VHH: EVQLVESGGGLVQAGGSLRLSCAASGSIFSIAAMGWYRQATGKQRELVATITDGGTTTYADSVKGRVTISRDRSANTVYLAMNNLKPDDTAVYYCYAYLRYTSRVPGDNYWGQGTQVTVSS
# notes: Purified monovalent Nanobody from E. coli (pAX100)
# B7: 07B11 with Tag-2 (VHH)
# VHH: EVQLVESGGNLVQAGGSLGLSCAASVSISSIHIMGWYRQAPGKQRDLVATITSGGSTAYADSVKGRFTVSKDNAKNTVYLQMDSLKPEDTSVYYCAAEVRNGVFGKWNHYWGQGTQVTVSS
# notes: Purified monovalent Nanobody from E. coli (pAX100); also called 707B11
# B8: 08A5 with Tag-2 (VHH)
# VHH: EVQLVESGGGLVQAGDSLRLSCAASGLTFSNYDMGWFRQAPGKEREFVGASWWSGGAPYYSDSVKGRFTISRDNAKNTVYLQANSLRPEDTAVYYCAAKRLRSFASGGSYDYWGQGTQVTVSS
# notes: as for B6
# B9: Mab 11G8 (R&D Systems) (antibody, V domains shown)
# VH: EVKLVESGGDLVQPGGSLKLSCATSGFTFSDYYMFWVRQTPEKRLEWVAYITNGGDRSYYSDTVTGRFIISRDNAKNTLYLQMSRLKSEDTAMYYCARQGNWAAWFVYWGQGTLVTVSA
# VL: DVLMTQTPLSLPVSLGDQASISCRSSHYIVHSDGNTYLEWYLQKPGQSPKLLIYKVSNRFSGVPDRFSGSGSGTDFTLKISRVEAEDLGIYYCFQGSHVPLTFGAGTKLELKR
# Molecular target: T1, Human CXCR7 (human, UniProt P25106 1-362)
# T1 construct: also called hCXCR7; CXCR7-LP
# T1 sequence (P25106 whole entry): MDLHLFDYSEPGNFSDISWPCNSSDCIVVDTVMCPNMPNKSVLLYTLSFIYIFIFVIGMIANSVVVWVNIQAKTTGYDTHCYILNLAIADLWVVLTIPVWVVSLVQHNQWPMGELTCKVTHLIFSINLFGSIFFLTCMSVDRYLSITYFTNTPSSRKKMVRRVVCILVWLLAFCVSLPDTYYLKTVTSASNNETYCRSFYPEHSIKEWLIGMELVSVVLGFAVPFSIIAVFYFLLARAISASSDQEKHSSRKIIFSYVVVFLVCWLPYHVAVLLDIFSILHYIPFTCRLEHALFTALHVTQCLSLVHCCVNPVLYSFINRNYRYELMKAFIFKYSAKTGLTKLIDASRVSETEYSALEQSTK
# Test: FACS, ratio of Hek293 hCXCR7 signal over control cells
# Procedure: Clones representing distinct Nanobody B-cell lineages were tested as periplasmic extracts for their binding to cell surface exposed CXCR7. In this assay, 5-fold dilutions of periplasmic extract were incubated with Hek293 hCXCR7 and Hek293 wt cells. Binding of the Nanobodies was detected using mouse anti-myc (Serotec), followed by anti-mouse IgG-PE (Jackson Immununoresearch). Binding signals of selected Nanobody clones (mcf values and ratios of binding) are represented in Table B-8 and indicate that the Nanobodies do bind to cellular human CXCR7.
row,Molecule,Fod Hek CXCR7/CXCR4 [fold]
1,B1,85.1
2,B2,73.2
3,B3,110
4,B4,60.1

# Molecular target: T1, Human CXCR7
# Test: competition FACS, 4 nM biotinylated SDF1 on HEK-hCXCR7 cells
# Procedure: The potency of Nanobody 7CXCR07C3 and Mab 8F11 (Biolegend) to compete with SDF1 was evaluated in competition FACS with HEK-hCXCR7 cells. Cells were incubated simultaneously with 4 nM biotinylated SDF1 (R&D) and with diluted test molecules, for 2 h at 4° C. Binding of biotinylated SDF1 was detected using streptavidin-PE. Competition curves are depicted in FIG. 1.
row,Molecule,competition (% relative to unlabelled SDF1) [%]
1,Mab 8F11 (Biolegend) (antibody),> 95
2,B5,> 95

# Molecular target: T1, Human CXCR7
# Test: displacement of 75 pM [125I]-CXCL12 from NIH3T3-hCXCR7 cells
# Procedure: In order to assess the competition capacity, Nanobodies were evaluated in SDF1 ligand displacement assays using stable NIH3T3-hCXCR7 cells. 24 h after seeding the cells, the cells were pre-incubated for 1 h at 4° C. with a dilution series of purified monovalent Nanobodies and the corresponding C-terminal Tag-2 tagged fusion proteins to the human serum albumin binding Nanobody Alb8 (see Table B-4: SEQ ID NOs: 44 to 48 wherein the polypeptides are all C-terminal tagged with Tag-2). Also reference molecules Mab 8F11 (Biolegend), Mab 11G8 (R&D) and unlabelled SDF1 were included in the assay. Radiolabeled [¹²⁵I]-CXCL12 was diluted and added to the cells to reach a final concentration of 75 pM and cells were incubated for 3 h at 4° C. After incubation, cells were washed twice, lysed with RIPA buffer and the ¹²⁵I signal was measured. The competition of tested Nanobodies and 8F11 Mab is between 73 and 83%, relative to competition with unlabelled SDF1. This level of displacement correspond to a 100% blocking of the CXCR7 protein, as the remaining SDF-1 binding is believed not to be CXCR7 mediated, but due to the SDF-1 interaction with heparan sulfate proteoglycans. Fusion to the human serum albumin-binding Nanobody Alb8 has no significant effect on Ki values.
row,Molecule,displacement (% relative to cold SDF1) [%]
1,Mab 8F11 (Biolegend) (antibody),73
2,B6,75
3,B5,78
4,B7,75
5,B8,77
6,B9,24
